Measurements: article PMC4053514, “Structural Diversity in the Dandelion (Taraxacum officinale) Polyphenol Oxidase Family Results in Different Responses to Model Substrates” (PLoS ONE, 2014)
Read-outs that look alike come from different tables or passages of the source. Blank lines part the entries; values can stand above or below the molecule they belong to.

What was measured:
Assay in all cases: spectrophotometric quinone formation, Michaelis-Menten fit
Type in all cases: biochemical, Taraxacum officinale
PPO-1 = test system: T1, PPO-1; conditions: 50 mM acetate-phosphate, optimal pH (5.5), 25 °C, optimal SDS concentration as activator, O2 co-substrate
T1 construct: mature protein without transit peptide, N-terminal Strep2 tag with enterokinase site spacer; E. coli Rosetta2 (DE3)
Source text: spectrophotometric quinone formation, Michaelis-Menten fit on PPO-1

[1] = substrate: NCCc1ccc(O)c(O)c1; conditions: 50 mM acetate-phosphate, optimal pH (6.0), 25 °C, optimal SDS concentration as activator, O2 co-substrate
Source text: spectrophotometric quinone formation, Michaelis-Menten fit on PPO-2

[2] = substrate: NCCc1ccc(O)c(O)c1; conditions: 50 mM acetate-phosphate, optimal pH (5.0), 25 °C, optimal SDS concentration as activator, O2 co-substrate
Source text: spectrophotometric quinone formation, Michaelis-Menten fit on PPO-6

[3] = substrate: NCCc1ccc(O)c(O)c1; conditions: 50 mM acetate-phosphate, optimal pH (5.0), 25 °C, optimal SDS concentration as activator, O2 co-substrate; remark: listed apart in the source
Source text: spectrophotometric quinone formation, Michaelis-Menten fit on PPO-7

Km (PPO-1; read-out: substrate / 4MC): 1060 ± 180 µM
Molecule: Cc1ccc(O)c(O)c1 [4-methylcatechol, 4-methylbenzene-1,2-diol]

Molecule: NCCc1ccc(O)c(O)c1 [dopamine, 4-(2-aminoethyl)benzene-1,2-diol]
Km (PPO-1; read-out: substrate / DA): 780 ± 140 µM

Km (PPO-1; read-out: substrate / L-Dopa): 8070 ± 2140 µM
Molecule: N[C@@H](Cc1ccc(O)c(O)c1)C(=O)O [dihydroxyphenylalanine, (S)-2-amino-3-(3,4-dihydroxyphenyl)propanoic acid]

Km (PPO-1; read-out: substrate / Dopac): 4950 ± 1670 µM
Molecule: O=C(O)Cc1ccc(O)c(O)c1 [dihydroxyphenylacetic acid, 2-(3,4-dihydroxyphenyl)acetic acid]

Molecule: Oc1ccccc1O [catechol, benzene-1,2-diol]
Km (PPO-1; read-out: substrate / CAT): 1190 ± 510 µM

B1: PPO-2 (Taraxacum officinale) (protein)
chain: DPIMAPDLTKCGPADLPQGAVATNCCPPFTKNIIDFKLPPPSTNLRVRPAAHLANKDYIAKFNKAIELMKALPDDDPRSFKQQAAVHCAYCDGAYDQVGFPDLDLQVHNSWLFLPFHRHYLYFFEKICGKLINDPNFAIPFWNWDTPDGMTIPAIYANKNSQLYDALRDGKHQPPSLVDLDFNGEDENLSKSKQTSTNLTIMYRQMVSSSKTASLFMGSPYRAGDEANPGGGSLESIPHGPVHIWTGDRNQPNGEDMGNFYSAARDPIFYAHHANIDRMWSVWKTLGGRRNDFTDKDWLDSAFLFYDENAELVRVKVRDALDSKKLGYVYQDVGIPWLETKPEPRLKRALSKIKKKLAVARADEHIPFAKDVFPATLDKVIKVLVPRPKKSRSKKQKDAEEEILVIEGIEVKRDEFVKFDVFVNDEDDGMRATADKTEFAGSFVNVPHKHKHGKSVKTRLRLGISELLDDLGADDDDNVLVTLVPKNKGDEVSIKGMKIEYED
notes: mature protein without transit peptide, N-terminal Strep2 tag with enterokinase site spacer; E. coli Rosetta2 (DE3)
Km [1]: 940 ± 310 µM | kcat [1]: 59.5 ± 13.7 s⁻¹

B2: PPO-6 (Taraxacum officinale) (protein)
chain: DPITTPDISTCVASTKGFQPKNAVRTNACCPPTLSKTVKEFVFPNDRATRIRPAAHRASPEYIAKYKAAIQKMRDLEDDDPHSFVSQAKIHCAYCNGGFTQDKHPDKELQIHNSWLFFPFHRWYLYFYERILGKLIDDPTFAIPYWNWDNPAGMSLPDFFEEGGKANPAFDAYRNSSHLAPAIADLDYDGTEKNYTCIKQLSVNLGAMNKQMIRNAGDWKSFFGGEYRAGSDPIGNKDPSVGSVEAGCHTAIHRWVGNSRLPNGEDMGNFYSAGYDPVFYVHHANVDRMWKVWKDLGIRGHIEPPDNDWRNASYVFYDENKELVRVYNKDCVRLEKLKYDYQFAPIPWKNSRPVARTKKSNIALKSVGTVKQAQDSKFPLKLDKTTKVLVKRPATNRSKEDKENANEVLLIKGVVFNGEKFVKFDVFVNDKDDVTASTAEESEFAGSFAQLPHNHGDKMLMTSSARFGLTELLEDIDAEDDESILVTLVPKVGCEEVTIGEIKVELVPIEE
notes: mature protein without transit peptide, N-terminal Strep2 tag with enterokinase site spacer; E. coli Rosetta2 (DE3); disulfide-linked tetramer
Km [2]: 5620 ± 1140 µM | kcat [2]: 61.7 ± 10.6 s⁻¹

B3: PPO-7 (Taraxacum officinale) (protein)
chain: APITTPDISTCIPSESGFNTEDSVRSNQCCPPATSSTIPKEFVFPKDTTTRIRPAAHRATPEYVAKYKAAIQAMRDLPDDHPHSFVSQAKIHCAYCNGGYTQVASGFPDKMLQVHNSWLFFPFHRWYLYFYERILGKLIDDPTFALPYWNWDHPAGMTLPAFFETDGKRNPVFDAYRNVTHVTPAAIVDLDYNGSDSGAPCLQQINTNLTAMYKQMVSNAADPLSFFGGVYKAGDDPFGNGDPSVGSVEAGCHTAVHRWVGNPRMMNTEDMGNFYSAGYDPAFYVHHANVDRMWKVWKDLGIPGHSEPTDPDWLNASFVFYDENEQLVRVYNKDCVNLENLKYDYELSPLPWLKNRPVPHTPKPVDNAAKPAIKLPEVKFPVKLDKTVKVYVKRPVKKRGKAEKDKVSEQLVLKGIKFNSTKFVKVDVFVNDQDDAPAILPSESEFVGSFAQLPHGRSGRGRGRGHGHSELMTSAARFGLTELLEDIGAEDDEYILVTLVPKAGSEDVTVEEITVELVPVNP
notes: mature protein without transit peptide, N-terminal Strep2 tag with enterokinase site spacer; E. coli Rosetta2 (DE3); tetramer
Km [3]: 4490 ± 2260 µM | kcat [3]: 22.6 ± 2.5 s⁻¹
